Data reported in patent publication US20260117274A1, “ORTHOGONALLY CROSSLINKED PROTEINS, METHODS OF MAKING, AND USES THEREOF” (The Research Foundation for The State University of New York, priority 2022, published 2026).
Where a chain is given by its changes, count along the chain named. Names and notes keep the numbering of the source.

B1: NSa1(+17)-A13BeLaK: supercharged NSa1 monobody encoding BeLaK; SEQ. ID. NO: 18 (protein)
chain: MGSSHHHHHHSSGTENLYFQGVKSKPTKLRVVRXTPTSLKISWKAPKKTVDYYVITYGKTGSGGYAWQRFRVPGSKRTAKIKGLKPGVDYTITVYAGYKGYPTYYSSPISINYRT
modifications: BeLaK non-natural residue at position 13; MOD_RES 34 X is N6-(2-Oxoazetidine-1-carbonyl)-L-lysine
notes: supercharged NSa1 monobody encoding BeLaK; ID; NO: 18
B2: NSa1(+17)-A13BeLaK-Y92K: supercharged NSa1 monobody encoding BeLaK; SEQ. ID. NO: 19 (protein)
chain: B1 chain with Y113K
modifications: BeLaK non-natural residue at position 13; MOD_RES 34 X is N6-(2-Oxoazetidine-1-carbonyl)-L-lysine
notes: supercharged NSa1 monobody encoding BeLaK; ID; NO: 19
B3: NSa1(+10)-A13BeLaK-C95: supercharged NSa1 monobody encoding BeLaK, C-terminal Cys; SEQ. ID. NO: 22 (protein)
chain: MGSSHHHHHHSSGTENLYFQGVSSKPTKLRVVRXTPTSLKIKWDAPAKTVDYYVITYGETGRGGYAWQRFEVPGSKRTATIKGLKPGVDYTITVYAGYKGYPTYYSSPISINYRTC
modifications: BeLaK at position 13; C-terminal Cys; MOD_RES 34 X is N6-(2-Oxoazetidine-1-carbonyl)-L-lysine
notes: supercharged NSa1 monobody encoding BeLaK, C-terminal Cys; ID; NO: 22
B4: NSa1(+7)-A13BeLaK: supercharged NSa1 monobody encoding BeLaK; SEQ. ID. NO: 11 (protein)
chain: MGSSHHHHHHSSGTENLYFQGVSSKPTKLRVVRXTPTSLKIKWDAPAVTVDYYVITYGEKGRGGYAWQEFEVPGSKRTATISGLKPGVDYTITVYAGYKGYPTYYSSPISINYRT
modifications: BeLaK non-natural residue at position 13; MOD_RES 34 X is N6-(2-Oxoazetidine-1-carbonyl)-L-lysine
notes: supercharged NSa1 monobody encoding BeLaK; ID; NO: 11
B5: NSa1(+5)-A13BeLaK-Y92K: supercharged NSa1 monobody encoding BeLaK; SEQ. ID. NO: 7 (protein)
chain: B4 chain with K42S, R62S, Y113K
modifications: BeLaK non-natural residue at position 13; MOD_RES 34 X is N6-(2-Oxoazetidine-1-carbonyl)-L-lysine
notes: supercharged NSa1 monobody encoding BeLaK; ID; NO: 7
B6: NSa1(+10)-A13BeLaK: supercharged NSa1 monobody encoding BeLaK; SEQ. ID. NO: 14 (protein)
chain: B4 chain with V48K, K60T, E69R, S82K
modifications: BeLaK non-natural residue at position 13; MOD_RES 34 X is N6-(2-Oxoazetidine-1-carbonyl)-L-lysine
notes: supercharged NSa1 monobody encoding BeLaK; ID; NO: 14
B7: NSa1(+5)-A13BeLaK: supercharged NSa1 monobody encoding BeLaK; SEQ. ID. NO: 6 (protein)
chain: B4 chain with K42S, R62S
modifications: BeLaK non-natural residue at position 13; MOD_RES 34 X is N6-(2-Oxoazetidine-1-carbonyl)-L-lysine
notes: supercharged NSa1 monobody encoding BeLaK; ID; NO: 6
B8: 12VC1(+8)-A13BeLaK-Y92K: monobody 12VC1(+8) encoding BeLaK; SEQ. ID. NO: 2 (protein)
chain: MGSSHHHHHHSSGTENLYFQGVSSVPTKLKVVAXTPTSLLISWDAPAVTVFFYVITYGETGHGVGAFKAFKVPGSKSTATISGLKPGVDYTITVYARGYSKKGPYKPSPISINKRT
modifications: BeLaK non-natural residue at position 13; VARIANT 34 X is Ne-(tert-butoxycarbonyl) lysine or N6-(2-Oxoazetidine-1-carbonyl)-L-lysine
notes: monobody 12VC1(+8) encoding BeLaK; ID; NO: 2
B9: 12VC1(+10)-A13BeLaK-Y92K: monobody 12VC1(+10) encoding BeLaK; SEQ. ID. NO: 3 (protein)
chain: B8 chain with S24K, K30E, S42K, F51K, T60K, K68Q, S77R, S82K, K102Q
modifications: BeLaK non-natural residue at position 13; VARIANT 34 X is Ne-(tert-butoxycarbonyl) lysine or N6-(2-Oxoazetidine-1-carbonyl)-L-lysine
notes: monobody 12VC1(+10) encoding BeLaK; ID; NO: 3
B10: NSa1(+10)-A13BeLaK-C1: supercharged NSa1 monobody encoding BeLaK, N-terminal Cys; SEQ. ID. NO: 15 and 23 (protein)
chain 1: MGSSHHHHHHSSGTENLYFQGCVSSKPTKLRVVRXTPTSLKIKWDAPAKTVDYYVITYGETGRGGYAWQRFEVPGSKRTATIKGLKPGVDYTITVYAGYKGYPTYYSSPISINYRT
chain 2: B10 chain 1
modifications: BeLaK at position 13; N-terminal Cys; MOD_RES 35 X is N6-(2-Oxoazetidine-1-carbonyl)-L-lysine
notes: supercharged NSa1 monobody encoding BeLaK, N-terminal Cys; ID; NO: 15 and 23
B11: NSa1(+17)-A13BeLaK-Y92K-C1: supercharged NSa1 monobody encoding BeLaK; SEQ. ID. NO: 20 (protein)
chain: B10 chain 1 with S24K, K43S, D45K, A48K, E60K, R63S, E72R, T81K, Y114K
modifications: BeLaK at position 13; N-terminal Cys; MOD_RES 35 X is N6-(2-Oxoazetidine-1-carbonyl)-L-lysine
notes: supercharged NSa1 monobody encoding BeLaK; ID; NO: 20
B12: NSa1(+10)-A13BeLaK-Y92K-C1: supercharged NSa1 monobody encoding BeLaK; SEQ. ID. NO: 16 (protein)
chain: B10 chain 1 with Y114K
modifications: BeLaK at position 13; N-terminal Cys; MOD_RES 35 X is N6-(2-Oxoazetidine-1-carbonyl)-L-lysine
notes: supercharged NSa1 monobody encoding BeLaK; ID; NO: 16
B13: NSa1(+5)-A13BeLaK-Y92K-C1: supercharged NSa1 monobody encoding BeLaK; SEQ. ID. NO: 9 (protein)
chain: B10 chain 1 with K43S, K49V, T61K, R63S, R70E, K83S, Y114K
modifications: BeLaK at position 13; N-terminal Cys; MOD_RES 35 X is N6-(2-Oxoazetidine-1-carbonyl)-L-lysine
notes: supercharged NSa1 monobody encoding BeLaK; ID; NO: 9
B14: NSa1(+7)-A13BeLaK-Y92K-C1: supercharged NSa1 monobody encoding BeLaK; SEQ. ID. NO: 12 (protein)
chain: B10 chain 1 with K49V, T61K, R70E, K83S, Y114K
modifications: BeLaK at position 13; N-terminal Cys; MOD_RES 35 X is N6-(2-Oxoazetidine-1-carbonyl)-L-lysine
notes: supercharged NSa1 monobody encoding BeLaK; ID; NO: 12

Experiment: Intramolecular (inter-strand) crosslinking yield of nanobody/monobodies by mass spectrometry
Conditions: UAA-encoded monobodies, MS characterization (Table 5)
From the text: To probe whether CATK-1 is suitable for inter-strand cross-linking in proteins containing the disulfide bond, we selected a small protein called nanobody NB1, a prototypical single-chain VHH antibody that binds specifically to GFP protein. Based on NB1 structure, there is one disulfide bond formed between Cys-24 and Cys-98, close to a proposed orthogonal crosslinking site at Val-4 and Tyr-106 (FIG. 5a, left). To test orthogonal crosslinking, we placed CATK-1 at Val-4 position to target Tyr-106 located 5.6 Å away on the opposing strand. The BocK- and CATK-1-encoded NB1 were successfully expressed at yields of 14.3 mg L^−1 and 3.5 mg L^−1, respectively (FIG. 5b, left). […] Separately, we also examined the utility of CATK-1 in effecting intramolecular crosslinking in an antibody mimic called monobody. Due to their lack of cysteine residues, small size (˜10 kDa), and evolvable binding affinity and specificity, monobodies represent an ideal protein scaffold for targeting protein-protein interactions in the cytosols of mammalian cells. However, monobodies are cell impermeable, severely limiting their potential. One strategy to potentially overcome this limitation is to combine protein surface supercharging with orthogonal crosslinking to increase stability in the endosomes and thus improve cytosolic delivery. To this end, we designed an overall +10 charged monobody NSa1, termed NSa1(+10), using the Supercharge protocol on ROSIE Rosetta Online Server and added an amber codon at Ala-13 position. Based on the NSa1 structure, A13CATK-1 is well-positioned to react with the proximal Tyr-92 on the opposing strand at C-terminus (FIG. 5a, right). Accordingly, the wild-type and NSa1(+10) mutant proteins encoding CATK-1 or BocK were expressed and purified in good yields (4.1-6.9 mg L^1; FIG. 5b, right). […] The crosslink-containing fragment was identified by LC/MS after trypsin digestion (FIG. 21).
To assess if BeLaK is suitable for orthogonal crosslinking of domain antibodies, we selected NSa1, a monobody-based SHP2 inhibitor, and placed BeLaK at position-13 of the N-terminal β-strand. A panel of supercharged NSa1 mutants carrying overall charges of +6, +8, +11, and +18, respectively, were designed using Supercharge protocol on ROSIE Rosetta Online Server with native NSa1 (˜2 charge) as a template. […] Thus, the supercharged monobodies encoding either BeLaK or BocK were expressed in good yields (2.2˜7.2 mg L^−1; FIG. 42). […] Furthermore, as the positive charge increases, the mobility decreases, likely due to reduced overall negative charge after association with the SDS molecules. MS analysis further confirmed the identities of the supercharged NSa1 mutants (FIG. 34c). Since the unreacted BeLaK-encoded monobodies share the same mass as the crosslinked ones, we treated the purified monobodies with excess β-mercapto-ethanol for 7 days, which accelerates the hydrolysis of the unreacted β-lactam and in turn adds +18 Da to protein mass, and monitored the intact mass change. Using this method, we determined orthogonal crosslinking yields to range from 5% for native NSa1 to more than 50% for +8/+11/+18 mutants (FIG. 42). We attribute the higher yields to the increased conformational dynamics, which promotes proximity-driven crosslinking reactions. The crosslinking sites in +11 and +18 mutants were mapped to Lys-21 and Lys-19, respectively, residues on the nearby β-strand, based on the identified fragment masses after trypsin digestion (FIG. 34d, FIG. 50).
Crosslinking yield determination of BeLaK-encoded NSa1 variants. To quantify the extent of crosslinking, β-mercaptoethanol (20 mM) was added at a final concentration of 2.58 mM (100 equiv, 3 μL) to a solution of purified NSa1 variants (25 μM, 30 μL) in elution buffer (50 mM Na2HPO4, pH=7.4, 300 mM NaCl, 250 mM imidazole). The mixture was incubated at 37° C. overnight. Afterwards, the mixture was removed from the incubator and allowed to incubate at 25° C. for 1 week.

Row | Molecule | X-linking yield
1 | B1 | 87%
2 | B2 | 89%
3 | B3 | 22%
4 | B4 | 61%
5 | B5 | 53%
6 | B6 | 86%
7 | B7 | 43%
8 | B8 | 86%
9 | B9 | 83%
10 | B10 | 97%
11 | B11 | 87%
12 | B12 | 100%
13 | B13 | 25%
14 | B14 | 60%
